The values that follow come from patent US20230357384A1 (NEXTCURE, published 2023).

In one assay the target is T1, human FLRT3 on cells (human, UniProt Q9NZU0 29-649).
T1 construct: also called hFLRT3
T1 sequence: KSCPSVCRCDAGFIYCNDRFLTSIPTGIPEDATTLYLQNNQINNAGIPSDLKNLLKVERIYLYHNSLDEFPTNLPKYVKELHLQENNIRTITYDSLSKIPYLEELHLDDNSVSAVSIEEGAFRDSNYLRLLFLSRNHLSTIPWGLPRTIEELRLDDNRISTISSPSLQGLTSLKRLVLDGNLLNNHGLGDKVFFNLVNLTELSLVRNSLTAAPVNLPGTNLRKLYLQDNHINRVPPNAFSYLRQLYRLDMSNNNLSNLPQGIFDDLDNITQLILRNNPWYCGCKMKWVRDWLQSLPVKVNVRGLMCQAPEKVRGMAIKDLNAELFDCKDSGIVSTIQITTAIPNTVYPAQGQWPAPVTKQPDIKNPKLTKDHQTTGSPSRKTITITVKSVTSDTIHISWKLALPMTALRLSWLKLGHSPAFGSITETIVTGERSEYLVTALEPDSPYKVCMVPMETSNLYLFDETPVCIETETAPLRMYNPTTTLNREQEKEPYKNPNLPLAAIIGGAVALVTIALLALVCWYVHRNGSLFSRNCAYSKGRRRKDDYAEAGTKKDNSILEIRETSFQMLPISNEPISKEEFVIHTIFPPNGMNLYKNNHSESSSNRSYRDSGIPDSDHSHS
In words: flow cytometry (AF647 MFI), FLRT3-293T-OKT3 cells, antibody titration. Background: Flow cytometry measures light scatter and fluorescence of single cells or particles in a stream.

Assay [1] deals with T2, FLRT3-His monomeric fusion protein (Homo sapiens (Human), UniProt Q9NZU0 29-528).
T2 construct: also called FLRT3 monomer; not shown: His tag
T2 sequence: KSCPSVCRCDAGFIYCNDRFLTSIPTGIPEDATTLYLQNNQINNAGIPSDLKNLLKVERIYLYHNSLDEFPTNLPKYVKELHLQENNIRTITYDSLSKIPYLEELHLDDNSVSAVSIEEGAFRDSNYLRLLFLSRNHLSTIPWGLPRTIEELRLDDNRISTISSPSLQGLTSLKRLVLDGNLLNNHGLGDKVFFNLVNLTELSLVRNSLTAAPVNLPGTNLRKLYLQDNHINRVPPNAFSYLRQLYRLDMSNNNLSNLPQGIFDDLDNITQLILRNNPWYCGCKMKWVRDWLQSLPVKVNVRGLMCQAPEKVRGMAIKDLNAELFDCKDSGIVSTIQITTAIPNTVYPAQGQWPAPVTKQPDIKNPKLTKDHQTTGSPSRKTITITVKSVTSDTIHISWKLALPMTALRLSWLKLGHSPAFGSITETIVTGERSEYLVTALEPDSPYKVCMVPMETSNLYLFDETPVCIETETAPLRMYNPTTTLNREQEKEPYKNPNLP
In words: Octet, FLRT3 antibodies and FLRT3 monomer. A general note: In BLI a coated tip is dipped into the sample, and binding shifts an interference pattern.

B1: 13B2 (antibody, V domains shown)
VH: EIQLQQSGTELVKPGASVKISCKASGYSFTGYNMNWMKQSHGMSLEWIGNINPYYGSTSYNQKFKGKATLTIDKSSSTAYMQLNSLTSEDSAVYYCARDRKNWEYFFDYWGQGTTLTVSS
VL: ETTVTQSPASLSMAIGEKVTIRCITSTDIDDDMNWYQQKPGKPPKLLISEGNTLRPGVPSRFSSSGYGTDFVFTIENMLSEDVADYYCLQSDNLPYTFGGGTKLEIK
notes: Variable domains only
Consider B1, for which the binding result with human FLRT3 on cells is given as “no binding (tested: about 300 nM)”; in assay [1], “no binding”.
